Beta-gal activity (ONPG assay) of the caspase-dependent CLBDG6 LexA/lacZ reporter in yeast (fold inhibition) data for two substances are collected here from patent publication US6884870.

Experiment [1] has as its target caspase 7 lacking the N-terminal 53 amino acid prodomain (caspase 7^53) (human) (UniProt P55210). The experiment is described as follows: cell-based or functional assay.
Experiment [2] concerns the target C. elegans caspase CED-3 (C. elegans) (UniProt P42573). The experiment is described as follows: cell-based or functional assay.
UniProt P42573, sequence (P42573 whole entry): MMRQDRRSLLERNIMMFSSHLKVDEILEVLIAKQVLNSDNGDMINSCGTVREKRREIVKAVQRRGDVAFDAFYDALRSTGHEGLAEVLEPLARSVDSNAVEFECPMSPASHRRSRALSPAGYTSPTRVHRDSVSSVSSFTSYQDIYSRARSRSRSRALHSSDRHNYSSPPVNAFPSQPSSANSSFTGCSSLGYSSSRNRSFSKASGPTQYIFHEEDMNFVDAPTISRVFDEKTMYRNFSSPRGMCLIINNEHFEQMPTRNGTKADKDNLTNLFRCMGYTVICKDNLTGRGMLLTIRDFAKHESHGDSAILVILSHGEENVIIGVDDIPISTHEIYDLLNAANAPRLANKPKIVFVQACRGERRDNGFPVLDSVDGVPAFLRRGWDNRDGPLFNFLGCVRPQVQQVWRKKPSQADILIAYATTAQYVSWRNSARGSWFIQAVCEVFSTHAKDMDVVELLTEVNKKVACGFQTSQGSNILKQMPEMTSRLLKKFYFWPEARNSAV

UniProt P55210, sequence (P55210 54-303 limits assumed): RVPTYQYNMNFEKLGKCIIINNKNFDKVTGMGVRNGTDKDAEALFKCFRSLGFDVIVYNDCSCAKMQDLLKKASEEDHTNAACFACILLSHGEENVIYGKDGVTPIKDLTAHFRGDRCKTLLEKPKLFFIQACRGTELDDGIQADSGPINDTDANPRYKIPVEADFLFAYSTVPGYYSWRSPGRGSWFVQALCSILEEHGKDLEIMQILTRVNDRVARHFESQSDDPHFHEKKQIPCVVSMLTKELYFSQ

Turning to “baculovirus p35 (from UniProt P08160 1-299)”, the beta-gal activity (ONPG assay) of the caspase-dependent CLBDG6 LexA/lacZ reporter in yeast (fold inhibition) in experiment [1] and in experiment [2] was 5 each time.

In experiment [1], “mouse IAP MIHA (from UniProt Q60989 1-496)” displayed a beta-gal activity (ONPG assay) of the caspase-dependent CLBDG6 LexA/lacZ reporter in yeast (fold inhibition) of 2.
